We go through 39 variants from the RNAGym collection of RNA variant scans (doi:10.7554/elife.80360).

B1: CPEB3 Ribozyme (parent)
chain: GGGGGCCACAGCAGAAGCGUUCACGUCGCGGCCCCUGUCAGAUUCUGGUGAAUCUGCGAAUUCUGCUGU

In the data set the parent is B1. In words: self-cleavage, relative activity (ratio to wild type); higher = more cleavage; co-transcriptional.
Regarding GGGGGCCACAGCAGAAGCGUUCACGUCGCGGCCCCUCUCAGAUUCUAGUGAAUCUGCGAAUUCUGCUGU [G37C G47A], the self-cleavage was 0.189. As for GGGGGCCACAGCAGAAGCGUUCACGUCGCGGCCCCUCUCAGAUUCUUGUGAAUCUGCGAAUUCUGCUGU [G37C G47U], the figure is 0.209; as for GGGGGCCACAGCAGAAGCGUUCACGUCGCGGCCCCUACCAGAUUCUGGUGAAUCUGCGAAUUCUGCUGU [G37A U38C], 0.34; as for GGGGGCCACAGCAGAAGCGUUCACGUCGCGGCCCCUAACAGAUUCUGGUGAAUCUGCGAAUUCUGCUGU [G37A U38A], 0.291. As for GGGGGCCACAGCAGAAGCGUUCACGUCGCGGCCCCUAGCAGAUUCUGGUGAAUCUGCGAAUUCUGCUGU [G37A U38G], the figure is 0.251; as for GGGGGCCACAGCAGAAGCGUUCACGUCGCGGCCCCUCUCCGAUUCUGGUGAAUCUGCGAAUUCUGCUGU [G37C A40C], 0.242. As for GGGGGCCACAGCAGAAGCGUUCACGUCGCGGCCCCUCUCUGAUUCUGGUGAAUCUGCGAAUUCUGCUGU [G37C A40U], the figure is 0.267. GGGGGCCACAGCAGAAGCGUUCACGUCGCGGCCCCUCUCGGAUUCUGGUGAAUCUGCGAAUUCUGCUGU [G37C A40G]: the self-cleavage is 0.181.

GGGGGCCACAGCAGAAGCGUUCACGUCGCGGCCCCUAUCAGAUUCUGGUGAAUCUGCGAAAUCUGCUGU [G37A U61A]: the self-cleavage turned out to be 0.202. As for GGGGGCCACAGCAGAAGCGUUCACGUCGCGGCCCCUAUCAGAUUCUGGUGAAUCUGCGAAUUCUGCUUU [G37A G68U], the figure is 0.385. For GGGGGCCACAGCAGAAGCGUUCACGUCGCGGCCCCUAUCAGAUUCUGGUGAAUCUGCGAAUUCUGCUAU [G37A G68A], the self-cleavage was 0.377. With GGGGGCCACAGCAGAAGCGUUCACGUCGCGGCCCCUAUCAGAUUCUGGUGAACCUGCGAAUUCUGCUGU [G37A U53C] the figure was 0.231; with GGGGGCCACAGCAGAAGCGUUCACGUCGCGGCCCCUCUCAGAUUCUGGUGAAUCUGCGAAUUAUGCUGU [G37C C63A], 0.261. With GGGGGCCACAGCAGAAGCGUUCACGUCGCGGCCCCUCUCAGAUUCUGGUGAAUCUGCGAAUUGUGCUGU [G37C C63G] the figure was 0.25. For GGGGGCCACAGCAGAAGCGUUCACGUCGCGGCCCCUCUCAGAUUCUGGUGAAUCUGCGAAUUUUGCUGU [G37C C63U], the self-cleavage was found to be 0.281. Turning to GGGGGCCACAGCAGAAGCGUUCACGUCGCGGCCCCUAUCAGAUUCUGGUGAAUCUGCGAAUUUUGCUGU [G37A C63U], the self-cleavage was determined as 0.364. With GGGGGCCACAGCAGAAGCGUUCACGUCGCGGCCCCUAUCAGAUUCUGGUGAAUCUGCGAAUUAUGCUGU [G37A C63A] the figure was 0.228; with GGGGGCCACAGCAGAAGCGUUCACGUCGCGGCCCCUCUCAGAUUCUGGUGAAUCUGAGAAUUCUGCUGU [G37C C57A], 0.242.

As for GGGGGCCACAGCAGAAGCGUUCACGUCGCGGCCCCUCUCAGAUUCUGGUGAAUCUGUGAAUUCUGCUGU [G37C C57U], the self-cleavage came to 0.192.

Turning to GGGGGCCACAGCAGAAGCGUUCACGUCGCGGCCCCUCUCAGAUUCUGGUGAAUCUGGGAAUUCUGCUGU [G37C C57G], the self-cleavage turned out to be 0.189.

Regarding GGGGGCCACAGCAGAAGCGUUCACGUCGCGGCCCCUCUCAGAUUCUGGUGAAUCUGCGCAUUCUGCUGU [G37C A59C], the self-cleavage came to 0.183. As for GGGGGCCACAGCAGAAGCGUUCACGUCGCGGCCCCUCUCAGAUUCUGGUGAAUCUGCGGAUUCUGCUGU [G37C A59G], the figure is 0.234; as for GGGGGCCACAGCAGAAGCGUUCACGUCGCGGCCCCUCUCAGAUUCUGGUGAGUCUGCGAAUUCUGCUGU [G37C A52G], 0.264; as for GGGGGCCACAGCAGAAGCGUUCACGUCGCGGCCCCUCUCAGAUUCUGGUGACUCUGCGAAUUCUGCUGU [G37C A52C], 0.216. As for GGGGGCCACAGCAGAAGCGUUCACGUCGCGGCCCCUCUCAUAUUCUGGUGAAUCUGCGAAUUCUGCUGU [G37C G41U], the figure is 0.201; as for GGGGGCCACAGCAGAAGCGUUCACGUCGCGGCCCCUAUCAGAUUCCGGUGAAUCUGCGAAUUCUGCUGU [G37A U46C], 0.338; as for GGGGGCCACAGCAGAAGCGUUCACGUCGCGGCCCCUAUCAGAUUCAGGUGAAUCUGCGAAUUCUGCUGU [G37A U46A], 0.375. With GGGGGCCACAGCAGAAGCGUUCACGUCGCGGCCCCUAUCAGAUUCGGGUGAAUCUGCGAAUUCUGCUGU [G37A U46G] the figure was 0.281; with GGGGGCCACAGCAGAAGCGUUCACGUCGCGGCCCCUAUCAGAUUCUGGUGAAUCUGCGAAUUCGGCUGU [G37A U64G], 0.254; with GGGGGCCACAGCAGAAGCGUUCACGUCGCGGCCCCUAUCAGAUUCUGGUGAAUCUGCGAAUUCAGCUGU [G37A U64A], 0.246. GGGGGCCACAGCAGAAGCGUUCACGUCGCGGCCCCUAUCAGAUUCUGGGGAAUCUGCGAAUUCUGCUGU [G37A U49G]: the self-cleavage is 0.37. For the variant GGGGGCCACAGCAGAAGCGUUCACGUCGCGGCCCCUAUCAGAUUCUGGUGAAUCUGUGAAUUCUGCUGU [G37A C57U], the self-cleavage turned out to be 0.247. As for GGGGGCCACAGCAGAAGCGUUCACGUCGCGGCCCCUAUCAGAUUCUGGUGAAUCUGGGAAUUCUGCUGU [G37A C57G], the figure is 0.241; as for GGGGGCCACAGCAGAAGCGUUCACGUCGCGGCCCCUAUCAGAUUCUGGUGAAUCUGCGAAUUCUGCAGU [G37A U67A], 0.389.

As to GGGGGCCACAGCAGAAGCGUUCACGUCGCGGCCCCUAUCAGAGUCUGGUGAAUCUGCGAAUUCUGCUGU [G37A U43G], the self-cleavage is 0.359. With GGGGGCCACAGCAGAAGCGUUCACGUCGCGGCCCCUAUCAGAAUCUGGUGAAUCUGCGAAUUCUGCUGU [G37A U43A] the figure was 0.261. With GGGGGCCACAGCAGAAGCGUUCACGUCGCGGCCCCUAUCAGACUCUGGUGAAUCUGCGAAUUCUGCUGU [G37A U43C] the figure was 0.261.

On to GGGGGCCACAGCAGAAGCGUUCACGUCGCGGCCCCUCUCAGAUUCUGGUGAAUCUGCGACUUCUGCUGU [G37C A60C], for which the self-cleavage stood at 0.236.

Regarding GGGGGCCACAGCAGAAGCGUUCACGUCGCGGCCCCUCUCAGAUUCUGGUGAAUCUGCGAUUUCUGCUGU [G37C A60U], the self-cleavage came out at 0.306.
